{"source": "paper PMC10881398", "about": "“O-glycosylation of the transcription factor SPATULA promotes style development in Arabidopsis” (Nature Plants, 2024)", "binders": {"B1": {"name": "SPT–GFP (35S::SPT::GFP) (natural protein, Arabidopsis thaliana, UniProt Q9FUA4 1-373, looked up)", "chain": "MISQREEREEKKQRVMGDKKLISSSSSSSVYDTRINHHLHHPPSSSDEISQFLRHIFDRSSPLPSYYSPATTTTTASLIGVHGSGDPHADNSRSLVSHHPPSDSVLMSKRVGDFSEVLIGGGSGSAAACFGFSGGGNNNNVQGNSSGTRVSSSSVGASGNETDEYDCESEEGGEAVVDEAPSSKSGPSSRSSSKRCRAAEVHNLSEKRRRSRINEKMKALQSLIPNSNKTDKASMLDEAIEYLKQLQLQVQMLTMRNGINLHPLCLPGTTLHPLQLSQIRPPEATNDPLLNHTNQFASTSNAPEMINTVASSYALEPSIRSHFGPFPLLTSPVEMSREGGLTHPRLNIGHSNANITGEQALFDGQPDLKDRIT", "notes": "SPATULA (SPT), Arabidopsis thaliana; in the self-association row the second copy carried RFP in place of EGFP (35S::SPT–RFP); also called SPT–EGFP; SPT–RFP (the second copy in the homodimer test); source: N. benthamiana leaves, Agrobacterium-infiltrated, in nuclei of leaf cells"}, "B2": {"name": "171-bp pPID G-box mutant (CACGTG to TGATGA) (dsDNA)", "DNA 1": "GCACCCCTATAATATGCCTAGAGGAAATAAGAAGAAAAAATAATGGGGAAAAAGAGAAGCTACTGCTACACTTTCAGGTGATGAACAACGTCTCATGATGATCATATATCTTACGTCATCAAGTCCTCTTTTTCTCTCTTTCACTTTTCTGTTTACCTCTCTCACGCGTTG", "DNA 2": "CAACGCGTGAGAGAGGTAAACAGAAAAGTGAAAGAGAGAAAAAGAGGACTTGATGACGTAAGATATATGATCATCATGAGACGTTGTTCATCACCTGAAAGTGTAGCAGTAGCTTCTCTTTTTCCCCATTATTTTTTCTTCTTATTTCCTCTAGGCATATTATAGGGGTGC"}}, "key": {"[1]": {"biological_target": "T1, IND–RFP (35S::IND–RFP) (Arabidopsis thaliana, UniProt O81313 1-198)", "T1 construct": "INDEHISCENT (IND), bHLH transcription factor, Arabidopsis thaliana; also called INDEHISCENT; source: N. benthamiana leaves, Agrobacterium-infiltrated, in nuclei of leaf cells", "T1 sequence (looked up)": "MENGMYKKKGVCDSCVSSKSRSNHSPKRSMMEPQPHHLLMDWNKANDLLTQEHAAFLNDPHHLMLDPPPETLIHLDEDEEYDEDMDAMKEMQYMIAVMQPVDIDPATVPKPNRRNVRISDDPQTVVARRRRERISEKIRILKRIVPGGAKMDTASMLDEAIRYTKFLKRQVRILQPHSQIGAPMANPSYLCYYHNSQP", "assay": "FRET or BRET; FRET–FLIM in nuclei of co-infiltrated N. benthamiana leaves; donor SPT–EGFP, acceptor RFP fusions; efficiency E = 1 − τDA/τD with SPT–EGFP;RFP–NLS as the donor-only reference; with or without co-expressed SEC–3xHA or SPY–3xHA", "details": "partners not purified"}, "[2]": {"biological_target": "the molecule itself", "assay": "FRET or BRET; FRET–FLIM in nuclei of co-infiltrated N. benthamiana leaves; donor SPT–EGFP, acceptor RFP fusions; efficiency E = 1 − τDA/τD with SPT–EGFP;RFP–NLS as the donor-only reference; with or without co-expressed SEC–3xHA or SPY–3xHA"}, "[3]": {"biological_target": "T2, HEC1–RFP (35S::HEC1–RFP) (Arabidopsis thaliana, UniProt Q9FHA7 1-241)", "T2 construct": "HECATE 1 (HEC1), bHLH transcription factor, Arabidopsis thaliana; the cloning of this construct is not described; the methods describe the FRET–FLIM constructs of SPT and IND only; also called HECATE 1; source: N. benthamiana leaves, Agrobacterium-infiltrated, in nuclei of leaf cells", "T2 sequence (looked up)": "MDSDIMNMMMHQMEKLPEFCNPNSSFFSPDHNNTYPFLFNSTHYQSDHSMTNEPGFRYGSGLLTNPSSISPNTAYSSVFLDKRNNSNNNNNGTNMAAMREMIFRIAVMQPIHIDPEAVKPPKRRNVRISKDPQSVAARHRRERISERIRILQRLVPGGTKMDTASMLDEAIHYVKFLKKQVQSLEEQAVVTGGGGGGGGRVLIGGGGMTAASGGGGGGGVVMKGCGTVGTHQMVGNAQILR", "assay": "FRET or BRET; FRET–FLIM in nuclei of co-infiltrated N. benthamiana leaves; donor SPT–EGFP, acceptor RFP fusions; efficiency E = 1 − τDA/τD with SPT–EGFP;RFP–NLS as the donor-only reference; with or without co-expressed SEC–3xHA or SPY–3xHA", "details": "partners not purified"}, "[4]": {"biological_target": "T3, 6xHis-SPT (SPATULA) (Arabidopsis thaliana, UniProt Q9FUA4 1-373)", "T3 sequence": "B1 chain", "assay": "EMSA; legend: binding abolished; text: strongly abolished; EMSA: 150 ng DNA, '1x' buffer as printed 250 mM Tris-HCl pH 8.0, 500 mM NaCl, 25% glycerol, 10 mM DTT; on ice 20 min; 5% native acrylamide gel, 1x TBE, EB stain", "details": "protein: recombinant; tags: 6xHis N-terminal (pRSFDuet); chain copies: 2; label: none (EB stain); blunt"}}, "data": [{"binder": "B1", "values": [{"measurement": "FRET efficiency", "setting": "[1]", "result": 9.6, "unit": "%"}, {"measurement": "FRET efficiency", "setting": "[2]", "result": 5.7, "unit": "%"}, {"measurement": "FRET efficiency", "setting": "[3]", "result": 7.4, "unit": "%"}]}, {"binder": "B2", "values": [{"measurement": "binding result", "setting": "[4]", "result": "no binding"}]}]}
